In article PMC8258042:

Molecular target: cardiac troponin I (cTnI) (human, UniProt P19429 2-210)
Assay: strand displacement

cardiac troponin I (cTnI), sequence (P19429 2-210): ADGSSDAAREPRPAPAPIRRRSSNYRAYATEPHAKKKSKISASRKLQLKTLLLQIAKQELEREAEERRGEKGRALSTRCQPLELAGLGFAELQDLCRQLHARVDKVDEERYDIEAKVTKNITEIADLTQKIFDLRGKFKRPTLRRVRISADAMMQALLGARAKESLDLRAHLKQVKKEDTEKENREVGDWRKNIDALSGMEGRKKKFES

B1: Poly-T (ssDNA)
DNA: TTTTTTTTTTTTTTTTTTTTCTCATGCGCTGCCCCTCTTATTTTTTTTTTT
modifications: 3'-NH2
binding result: no binding
